Laboratory results as given in PMC5985514.
Like-named read-outs stand apart in the source and are kept apart here.

Columns and labels:
Assay in all cases: NMR titration
[1] = target: 3-fluorotyrosine labeled A34F variant of the B1 domain of protein G (T2Q background)
[2] = target: 3-fluorotyrosine labeled A34F variant of the B1 domain of protein G (T2Q background); remark: listed apart in the source
[3] = target: 3-fluorotyrosine labeled A34F variant of the B1 domain of protein G (T2Q background); remark: listed apart in the source
[4] = target: 3-fluorotyrosine labeled A34F variant of the B1 domain of protein G (T2Q background); remark: listed apart in the source
[5] = target: 3-fluorotyrosine labeled A34F variant of the B1 domain of protein G (T2Q background); remark: listed apart in the source
[6] = target: 3-fluorotyrosine labeled A34F variant of the B1 domain of protein G (T2Q background); remark: listed apart in the source
[7] = target: 3-fluorotyrosine labeled A34F variant of the B1 domain of protein G (T2Q background); remark: listed apart in the source
[8] = target: 3-fluorotyrosine labeled A34F variant of the B1 domain of protein G (T2Q background); remark: listed apart in the source
[9] = target: 3-fluorotyrosine labeled A34F variant of the B1 domain of protein G (T2Q background); remark: listed apart in the source
[10] = target: 3-fluorotyrosine labeled A34F variant of the B1 domain of protein G (T2Q background); remark: listed apart in the source

Kd [1]: 45 µM
Kd [2]: 26 µM
Kd [3]: 17 µM
Kd [4]: 90 µM
Kd [5]: 25 µM
Kd [6]: 80 µM
Kd [7]: 55 µM
Kd [8]: 85 µM
Kd [9]: 95 µM
Kd [10]: 59 µM
Substance: 3-fluorotyrosine labeled A34F variant of the B1 domain of protein G (T2Q background) (domain or fragment)
